Source: US6103872A, “CAPON: a protein associated with neuronal nitric oxide synthase” (The Johns Hopkins University, priority 1998, dated 2000)
Changes are numbered by the printed parent chain. Blank lines part the entries; values can stand above or below the molecule they belong to.

Assays:
[1] = molecular target: nNOS expressed in transfected HEK293 cells (lysate; also metabolically labelled and purified); test: competition: nNOS (HEK-293) binding to immobilized GST-PSD95 in the presence of His6-CAPON
[2] = molecular target: nNOS (Rattus norvegicus, UniProt P29476); test: CAPON C-terminal peptides as competitors for nNOS binding; set-up: expressed in transfected cells; host or cells: HEK293
[3] = system: nNOS/PSD95 interaction; test: Competition of His6-fusion proteins for nNOS binding to immobilized GST-PSD95; set-up: competition for / block of nNOS-PSD95 interaction: dose or concentration left out as unconfirmed; conditions: for block of nNOS/PSD95 interaction in vitro: no concentration stated
Method: (§1) The C-terminal 100 amino acids were fused to a His6 tag and added to HEK293 lysates transfected with nNOS expression plasmids at the indicated fusion protein concentration. This mixture was added to GST-PSD95 (amino acids 20-364) or GST-PSD93 (116-421), the regions of these proteins previously shown to interact with nNOS (Brenrman et al., 1996).
(FIG. 5B) Quantification of CAPON inhibition of the nNOS/PSD95 interaction. HEK293 cells were transfected with nNOS expression plasmids and then metabolically labeled with [^35 S] methionine. Radiolabeled nNOS was purified and mixed with His6 -CAPON as in (A), above. Bound nNOS was resolved by electrophoresis and counts were determined on a Phospholmager.
Transfections were performed with 10 μg of each plasmid using the calcium phosphate method. Following transfection, cells were sonicated in buffer A [50 mM Tris-HCl (pH 7.7), 100 mM NaCl, 2 mM EDTA, and 1% Triton X-100] and cleared by centrifugation. This cellular lysate was incubated with GST-fusion protein immobilized on glutathione-agarose for one hour at 4° C. and washed extensively in HNTG buffer [20 mM Hepes (pH 7.4), 500 mM NaCl, 10% glycerol, and 0.1% Triton X-100] five times, for ten minutes per wash at room temperature. A GST-CAPON fusion protein consisting of amino acids 379-503 was used for binding assays because it was more soluble when expressed in bacteria than larger CAPON fusion proteins.
For quantitative binding experiments, transfected cells were metabolically labeled overnight with […] [^35 S] methionine and nNOS was purified by NADPH elution of 2', 5' ADP ribose as described previously (Bredt and Snyder, 1990).
Since the nNOS PDZ domain is capable of both PDZ-PDZ interactions and PDZ-C-terminal peptide interactions we wondered whether CAPON and PSD95 can bind simultaneously to nNOS or whether their interactions with nNOS are mutually exclusive. To answer this question we incubated lysates of HEK-293 cells containing nNOS with various concentrations of a His6 -CAPON fusion protein, comprising the last 125 amino acids of CAPON, and then added these lysates to GST-PSD95 immobilized on glutathione agarose resin (FIG. 5A). After extensive washing of the resin, we assayed for nNOS bound to PSD95 by Western blot. […] Half maximal reduction of binding is evident between 5 and 50 nM His6 -CAPON (FIG. 5B). […] As controls, we examined the effects of 5 μM His6 -PIN or […] His6 -FK506 binding protein-12 kD (FKBP). […] These effects of CAPON likely reflect its binding to nNOS rather than to the PDZ domains of either PSD95 or PSD93 because CAPON fails to interact with either PSD93 or PSD95 using (i) a two-hybrid assay (see FIG. 1A) and (ii) in vitro experiments utilizing immobilized GST-PSD95 and purified recombinant CAPON (data not shown).

[4] = molecular target: nNOS (purified nNOS standard; preparation and species not stated); test: peptide competition; format not described
[5] = molecular target: T1, nNOS construct comprising amino acids 163-245 (PIN-binding domain of nNOS), Gal4 BD fusion (rat); test: yeast two-hybrid with truncations of nNOS
T1 chain: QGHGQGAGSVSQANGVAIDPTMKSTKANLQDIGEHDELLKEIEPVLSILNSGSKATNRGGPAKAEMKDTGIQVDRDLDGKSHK

[6] = system: nNOS PDZ domain; test: Binding of mutagenized His6-CAPON fusion proteins to immobilized GST-NOS (1-100); conditions: His6-fusion of last 100 amino acids of CAPON, last four amino acids given
Method: His6 -fusion proteins of the last 100 amino acids of CAPON were generated and incubated with GST-NOS (1-100) immobilized on glutathione agarose.
Recently Cantley and associates (Songyang et al., 1997) identified consensus sequences for binding to several PDZ domains. Binding of PDZ ligands involves the C-terminus of proteins, with determinants of specificity lying within the eight or fewer C-terminal amino acids. A consistent requirement among all the PDZ domain ligands is a hydrophobic residue, such as valine or leucine, as the final amino acid.

[7] = system: nNOS/PSD93 interaction; test: Competition for nNOS binding to immobilized GST-PSD93
Method: as §1
Since the nNOS PDZ domain is capable of both PDZ-PDZ interactions and PDZ-C-terminal peptide interactions we wondered whether CAPON and PSD95 can bind simultaneously to nNOS or whether their interactions with nNOS are mutually exclusive. To answer this question we incubated lysates of HEK-293 cells containing nNOS with various concentrations of a His6 -CAPON fusion protein, comprising the last 125 amino acids of CAPON, and then added these lysates to GST-PSD95 immobilized on glutathione agarose resin (FIG. 5A). After extensive washing of the resin, we assayed for nNOS bound to PSD95 by Western blot. […] Half maximal reduction of binding is evident between 5 and 50 nM His6 -CAPON (FIG. 5B). […] As controls, we examined the effects of 5 μM His6 -PIN or […] His6 -FK506 binding protein-12 kD (FKBP). […]

nNOS, sequence (P29476 whole entry, the tested form may be a part): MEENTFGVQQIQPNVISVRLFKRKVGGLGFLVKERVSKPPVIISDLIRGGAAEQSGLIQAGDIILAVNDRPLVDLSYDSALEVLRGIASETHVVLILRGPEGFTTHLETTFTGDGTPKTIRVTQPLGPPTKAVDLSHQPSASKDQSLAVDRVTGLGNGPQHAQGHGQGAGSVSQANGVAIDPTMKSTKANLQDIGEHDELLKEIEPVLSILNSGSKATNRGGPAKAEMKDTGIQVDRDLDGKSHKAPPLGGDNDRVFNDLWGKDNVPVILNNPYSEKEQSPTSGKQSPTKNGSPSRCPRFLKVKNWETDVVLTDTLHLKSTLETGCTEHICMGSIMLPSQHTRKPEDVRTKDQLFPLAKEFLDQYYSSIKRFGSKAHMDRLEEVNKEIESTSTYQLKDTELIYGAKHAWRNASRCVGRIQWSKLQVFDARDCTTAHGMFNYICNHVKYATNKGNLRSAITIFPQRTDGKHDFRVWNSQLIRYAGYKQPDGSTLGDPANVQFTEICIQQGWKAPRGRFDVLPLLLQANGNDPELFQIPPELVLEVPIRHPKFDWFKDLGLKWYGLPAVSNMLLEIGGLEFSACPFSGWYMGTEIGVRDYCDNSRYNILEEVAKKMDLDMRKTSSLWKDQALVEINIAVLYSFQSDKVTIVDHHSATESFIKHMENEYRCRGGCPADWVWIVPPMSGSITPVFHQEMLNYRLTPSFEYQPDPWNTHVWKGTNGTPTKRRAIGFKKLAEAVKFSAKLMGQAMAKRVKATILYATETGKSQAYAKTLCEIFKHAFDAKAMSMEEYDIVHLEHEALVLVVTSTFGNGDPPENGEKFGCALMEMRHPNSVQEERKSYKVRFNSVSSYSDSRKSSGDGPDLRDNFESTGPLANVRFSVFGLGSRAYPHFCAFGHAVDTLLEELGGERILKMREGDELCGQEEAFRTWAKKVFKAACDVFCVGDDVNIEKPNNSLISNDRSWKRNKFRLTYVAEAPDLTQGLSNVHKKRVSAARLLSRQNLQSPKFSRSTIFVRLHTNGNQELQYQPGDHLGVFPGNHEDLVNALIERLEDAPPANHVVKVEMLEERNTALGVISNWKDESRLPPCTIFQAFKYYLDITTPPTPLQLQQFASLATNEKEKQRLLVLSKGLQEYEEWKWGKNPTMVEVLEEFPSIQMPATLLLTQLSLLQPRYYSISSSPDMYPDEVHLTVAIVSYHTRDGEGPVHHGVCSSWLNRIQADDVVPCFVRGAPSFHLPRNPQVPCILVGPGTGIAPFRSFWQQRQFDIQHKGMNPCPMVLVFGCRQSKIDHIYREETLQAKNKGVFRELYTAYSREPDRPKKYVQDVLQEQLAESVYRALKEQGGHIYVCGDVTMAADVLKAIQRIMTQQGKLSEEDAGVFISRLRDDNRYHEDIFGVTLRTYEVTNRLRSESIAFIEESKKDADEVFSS

IC50 [1]: 5 to 50 nM
Molecule: His6-CAPON fusion protein comprising the last 125 amino acids of CAPON

IC50 ([2]; read-out: IC50 as competitor): 10 µM
Molecule: 16-residue peptides: 16-residue peptides of the CAPON C-terminus (LQRQELGDSLDDEIAV; UniProt O54960 488-503, looked up, fragment)

competition for / block of nNOS-PSD95 interaction [3]: Neither of these proteins compete | block of nNOS/PSD95 interaction in vitro [3]: do not disrupt
Molecule: His6 -FKBP: His6-tagged FK506 binding protein-12 kD, control protein [reference compound]

binding to nNOS [2]: bind nNOS weakly
Molecule: peptides comprising the C-terminal nine residues of CAPON: short, presumably unfolded, peptides comprising the C-terminal nine residues of CAPON (DSLDDEIAV)

IC50 [4]: 10 mM
B1: 16-residue peptides of CAPON (peptide)
peptide: LQRQELGDSLDDEIAV

competition for / block of nNOS-PSD95 interaction [3]: fails to block the interaction
B2: DC20: His6-CAPON fusion protein with the C-terminal 20 amino acids deleted (protein)
chain: SGALPVLCESTTPKPEDLHSPLLGAGLADFAHPVGSPLGRRDCLVKLECFRFLPAEDNQPMAQGEPLLGGLELIKFRESGIASEYESNTDESEERDSWSQEELPR
block of nNOS/PSD95 interaction in vitro [3]: abolishes its ability to serve as a competitor

binding result [5]: no binding
B3: pAD-CAPON1 (Gal4 activation domain fused to the last 125 amino acids of CAPON) (other)
chain: SGALPVLCESTTPKPEDLHSPLLGAGLADFAHPVGSPLGRRDCLVKLECFRFLPAEDNQPMAQGEPLLGGLELIKFRESGIASEYESNTDESEERDSWSQEELPRLLNVLQRQELGDSLDDEIAV

reduction of nNOS binding to GST-PSD95 ([3]; 5 nM fusion protein): substantial reduction | block of nNOS/PSD95 interaction in vitro [3]: specifically block | effective concentration range as competitor ([3]; see FIG. 5): active in the nanomolar range | competition for nNOS binding to immobilized GST-PSD93 [7]: effective competitor
B4: His6 -CAPON: His6-tagged fusion protein of the C-terminal 100 or 125 amino acids of CAPON (protein)
chain: B3 chain
binding to GST-NOS (1-100) [6]: binds

B5: EIAA: His6-CAPON (last 100 amino acids), terminal valine mutated to alanine (protein)
chain: GLADFAHPVGSPLGRRDCLVKLECFRFLPAEDNQPMAQGEPLLGGLELIKFRESGIASEYESNTDESEERDSWSQEELPRLLNVLQRQELGDSLDDEIAA
binding to GST-NOS (1-100) [6]: prevents binding

B6: ESAV: His6-CAPON (last 100 amino acids), n-2 isoleucine mutated to serine (protein)
chain: B5 chain with I98S, A100V
binding to GST-NOS (1-100) [6]: tolerated

B7: EAAV: His6-CAPON (last 100 amino acids), n-2 isoleucine mutated to alanine (protein)
chain: B5 chain with I98A, A100V
binding to GST-NOS (1-100) [6]: tolerated
